From patent publication US20090215992A1 (published 2009)

Target: T1, mouse IL-1α (mouse, UniProt P01582 115-270)
T1 sequence (looked up): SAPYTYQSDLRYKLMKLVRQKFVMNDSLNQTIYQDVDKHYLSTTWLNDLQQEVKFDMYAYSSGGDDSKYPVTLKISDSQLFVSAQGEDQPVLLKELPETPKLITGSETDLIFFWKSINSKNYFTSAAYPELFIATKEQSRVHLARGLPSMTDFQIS
Assay: cell-based or functional assay

B1: mIL-1α/β DVD-Ig (bispecific antibody, mouse IgG2a, kappa)
heavy: EVQLQQSGPELVKPGTSVKMSCKTSGYTFTSYVMHWVKQKPGQGLEWIGYIIPYNDNTKYNEKFKGKATLTSDKSSSTAYMELSSLTSEDSAVYYCARRNEYYGSSFFDYWGQGTTLTVSSAKTTAPSVYPLAPQVILKESGPGILQPSQTLSLTCSFSGFSLSTYGTAVNWIRQPSGKGLEWLAQIGSDDRKLYNPFLKSRITLSEDTSNSQVFLKITSVDTEDSATYYCANGVMEYWGLGTSVTVSSAKTTAPSVYPLAPVCGDTTGSSVTLGCLVKGYFPEPVTLTWNSGSLSSGVHTFPAVLQSDLYTLSSSVTVTSSTWPSQSITCNVAHPASSTKVDKKIEPRGPTIKPCPPCKCPAPNLLGGPSVFIFPPKIKDVLMISLSPIVTCVVVDVSEDDPDVQISWFVNNVEVHTAQTQTHREDYNSTLRVVSALPIQHQDWMSGKEFKCKVNNKDLPAPIERTISKPKGSVRAPQVYVLPPPEEEMTKKQVTLTCMVTDFMPEDIYVEWTNNGKTELNYKNTEPVLDSDGSYFMYSKLRVEKKNWVERNSYSCSVVHEGLHNHHTTKSFSRTPGK
light: DIQMTQSPASLSASVGETVTITCRGSGILHNYLVWYQQKQGKSPQLLVYSAKILADGVPSRFSGSGSGTQYSLKINSLQPEDFGSYYCQHFWSTPFTFGSGTKLEIKRADAAPTVSIFPPSIVMTQTPKFLLVSAGDRVTITCKASQSVNHDVAWYQQMPGQSPKLLIYFASNRYTGVPDRFTGSGYGTDFTFTISTVQAEDLAVYFCQQDYSSPYTFGGGTKLEIKRADAAPTVSIFPPSSEQLTSGGASVVCFLNNFYPKDINVKWKIDGSERQNGVLNSWTDQDSKDSTYSMSSTLTLTKDEYERHNSYTCEATHKTSTSPIVKSFNRNEC
fold decrease of potency against the parental anti-mIL-1α mAb: 10 fold
